In article doi:10.1101/765990 (bioRxiv, 2019):

Molecular target: T1, Sed5p Habc domain (amino acids 1-210) (budding yeast, UniProt Q01590 1-210)
T1 sequence: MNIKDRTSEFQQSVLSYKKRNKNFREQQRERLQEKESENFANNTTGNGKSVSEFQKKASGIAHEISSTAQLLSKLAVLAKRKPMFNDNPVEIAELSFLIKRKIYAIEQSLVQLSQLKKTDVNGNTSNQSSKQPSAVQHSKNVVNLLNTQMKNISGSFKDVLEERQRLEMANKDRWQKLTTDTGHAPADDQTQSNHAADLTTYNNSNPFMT
Assay: native gel or EMSA

binding result: binds
B1: Sed5p SNARE-motif (amino acids 211-320), wild type (domain or fragment)
chain: SLLDESSEKNNNSSNQGELSFPQNDSQLMLMEEGQLSNNVYLQERNRAVETIESTIQEVGNLFQQLASMVQEQGEVIQRIDANVDDIDLNISGAQRELLKYFDRIKSNRW
